Test results: patent US20110189095A1 (University of Texas, published 2011)
Bridge positions count the residues as written; N and C are the ends. Ends that are not written are not given here.

B1: synthetic PSI-derived peptide NSTFLQEGMPTSA (SEQ ID NO:23) (peptide)
peptide: NSTFLQEGMPTSA
notes: also called β1 integrin PSI-derived peptide
B2: CRKL of DU145 cells (cell extract, membrane fraction, cell surface or serum-free condition medium) (other)
chain: MSSARFDSSDRSAWYMGPVSRQEAQTRLQGQRHGMFLVRDSSTCPGDYVLSVSENSRVSHYIINSLPNRRFKIGDQEFDHLPALLEFYKIHYLDTTTLIEPAPRYPSPPMGSVSAPNLPTAEDNLEYVRTLYDFPGNDAEDLPFKKGEILVIIEKPEEQWWSARNKDGRVGMIPVPYVEKLVRSSPHGKHGNRNSNSYGIPEPAHAYAQPQTTTPLPAVSGSPGAAITPLPSTQNGPVFAKAIQKRVPCAYDKTALALEVGDIVKVTRMNINGQWEGEVNGRKGLFPFTHVKIFDPQNPDENE
notes: Native protein from human DU145 prostate cancer cells; also called secreted CRKL; extracellular CRKL
B3: IL11 receptor of DU145 cells (receptor, human, UniProt Q14626 23-422, looked up)
chain: SSPCPQAWGPPGVQYGQPGRSVKLCCPGVTAGDPVSWFRDGEPKLLQGPDSGLGHELVLAQADSTDEGTYICQTLDGALGGTVTLQLGYPPARPVVSCQAADYENFSCTWSPSQISGLPTRYLTSYRKKTVLGADSQRRSPSTGPWPCPQDPLGAARCVVHGAEFWSQYRINVTEVNPLGASTRLLDVSLQSILRPDPPQGLRVESVPGYPRRLRASWTYPASWPCQPHFLLKFRLQYRPAQHPAWSTVEPAGLEEVITDAVAGLPHAVRVSARDFLDAGTWSTWSPEAWGTPSTGTIPKEIPAWGQLHTQPEVEPQVDSPAPPRPSLQPHPRLLDHRDSVEQVAVLASLGILSFLGLVAGALALGLWLRLRRGGKDGSPKPGFLASVIPVDRRPGAPNL
notes: whole, on cells; Unrelated transmembrane receptor, control of the co-immunoprecipitation
B4: β3 integrin of DU145 cells (receptor, human, UniProt P05106 27-788, looked up)
chain: GPNICTTRGVSSCQQCLAVSPMCAWCSDEALPLGSPRCDLKENLLKDNCAPESIEFPVSEARVLEDRPLSDKGSGDSSQVTQVSPQRIALRLRPDDSKNFSIQVRQVEDYPVDIYYLMDLSYSMKDDLWSIQNLGTKLATQMRKLTSNLRIGFGAFVDKPVSPYMYISPPEALENPCYDMKTTCLPMFGYKHVLTLTDQVTRFNEEVKKQSVSRNRDAPEGGFDAIMQATVCDEKIGWRNDASHLLVFTTDAKTHIALDGRLAGIVQPNDGQCHVGSDNHYSASTTMDYPSLGLMTEKLSQKNINLIFAVTENVVNLYQNYSELIPGTTVGVLSMDSSNVLQLIVDAYGKIRSKVELEVRDLPEELSLSFNATCLNNEVIPGLKSCMGLKIGDTVSFSIEAKVRGCPQEKEKSFTIKPVGFKDSLIVQVTFDCDCACQAQAEPNSHRCNNGNGTFECGVCRCGPGWLGSQCECSEEDYRPSQQDECSPREGQPVCSQRGECLCGQCVCHSSDFGKITGKYCECDDFSCVRYKGEMCSGHGQCSCGDCLCDSDWTGYYCNCTTRTDTCMSSNGLLCSGRGKCECGSCVCIQPGSYGDTCEKCPTCPDACTFKKECVECKKFDRGALHDENTCNRYCRDEIESVKELKDTGKDAVNCTYKNEDDCVVRFQYYEDSSGKSILYVVEEPECPKGPDILVVLLSVMGAILLIGLAALLIWKLLITIHDRKEFAKFEEERARAKWDTANNPLYKEATSTFTNITYRGT
notes: whole, on cells; Control of the co-immunoprecipitation; also called other integrins (anti-β3)
B5: recombinant His-tag CRKL (rCRKL) (other)
chain: B2 chain
notes: Open reading frame of full-length CRKL cDNA cloned in pET28a, expressed in BL21; also called recombinant CRKL; rCKRL protein; not shown: His-tag from pET28a vector

Legend:
[1] = target: B5; test: ELISA, His-tag protein on coated synthetic peptide (FIG. 3A)
Experimental: (§1) Synthetic tumor-homing peptide ([…]; SEQ ID NO:1) or PSI-derived peptide ([…]; SEQ ID NO:23) were coated on microtiter plates followed by blocking, and washing. The following recombinant His-tag proteins were added to the coated plates: rCRKL, rCRKL-SH2 domain, rCRKL-SH3 (N) domain, and rCRKL-SH3 (C) domain. An unrelated control protein (α2-Heremans-Schmid glycoprotein; AHSG) served as a negative control. The mixtures were incubated, washed, and labeled with the appropriate antibodies. Secondary antibodies conjugated to horse-radish peroxidase (HRP) were added followed by adding TMB substrate (Calbiochem), and analyzed by an automated ELISA reader (Bio-Tek). To determine the inhibitory activity of the tumor-homing peptide, the PSI-derived peptide, or the phage clone displaying the corresponding tumor-homing peptide were incubated with the rCRKL-SH3 (C) domain. Unrelated cyclic peptide sequences and insertless phage (fd-tet) served as negative controls. The admixtures were incubated and added to wells coated with the tumor-homing peptide. After incubation, the wells were washed, labeled with the appropriate antibodies, and processed as above.

[2] = target: B5; test: ELISA, His-tag protein on coated synthetic peptide
Experimental: as §1

[3] = target: T1, β5 integrin of DU145 cells (human, UniProt P18084 24-799); test: reciprocal co-immunoprecipitation, DU145 membrane fractions
T1 construct: whole, on cells; Control of the co-immunoprecipitation; also called other integrins (anti-β5)
T1 sequence (P18084 24-799): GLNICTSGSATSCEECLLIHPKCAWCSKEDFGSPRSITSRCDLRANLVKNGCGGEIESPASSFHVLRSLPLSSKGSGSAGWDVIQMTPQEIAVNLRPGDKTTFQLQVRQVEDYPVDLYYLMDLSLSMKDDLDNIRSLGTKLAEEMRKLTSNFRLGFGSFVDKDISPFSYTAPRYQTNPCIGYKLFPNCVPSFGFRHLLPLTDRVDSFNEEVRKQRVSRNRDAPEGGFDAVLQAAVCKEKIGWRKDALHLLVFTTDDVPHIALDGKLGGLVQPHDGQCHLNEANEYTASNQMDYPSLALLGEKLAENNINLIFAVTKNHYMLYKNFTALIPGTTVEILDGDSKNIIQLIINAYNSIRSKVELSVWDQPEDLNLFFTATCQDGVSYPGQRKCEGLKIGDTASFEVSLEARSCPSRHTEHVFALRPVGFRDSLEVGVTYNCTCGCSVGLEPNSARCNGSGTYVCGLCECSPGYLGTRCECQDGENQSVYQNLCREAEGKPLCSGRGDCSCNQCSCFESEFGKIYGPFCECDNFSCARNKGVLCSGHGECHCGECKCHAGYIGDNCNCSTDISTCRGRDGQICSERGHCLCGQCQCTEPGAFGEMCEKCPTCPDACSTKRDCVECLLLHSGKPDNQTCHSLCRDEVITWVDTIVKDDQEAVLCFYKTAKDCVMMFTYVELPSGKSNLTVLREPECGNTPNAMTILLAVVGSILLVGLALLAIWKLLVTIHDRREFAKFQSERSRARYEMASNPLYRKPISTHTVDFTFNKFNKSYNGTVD

[4] = target: B3; test: as above
[5] = target: T2, β1 integrin of DU145 cells (membrane fraction / cell surface) (human, UniProt P05556 21-798); test: as above
T2 construct: Native β1 chain of human DU145 cells
T2 sequence (P05556 21-798 limits assumed): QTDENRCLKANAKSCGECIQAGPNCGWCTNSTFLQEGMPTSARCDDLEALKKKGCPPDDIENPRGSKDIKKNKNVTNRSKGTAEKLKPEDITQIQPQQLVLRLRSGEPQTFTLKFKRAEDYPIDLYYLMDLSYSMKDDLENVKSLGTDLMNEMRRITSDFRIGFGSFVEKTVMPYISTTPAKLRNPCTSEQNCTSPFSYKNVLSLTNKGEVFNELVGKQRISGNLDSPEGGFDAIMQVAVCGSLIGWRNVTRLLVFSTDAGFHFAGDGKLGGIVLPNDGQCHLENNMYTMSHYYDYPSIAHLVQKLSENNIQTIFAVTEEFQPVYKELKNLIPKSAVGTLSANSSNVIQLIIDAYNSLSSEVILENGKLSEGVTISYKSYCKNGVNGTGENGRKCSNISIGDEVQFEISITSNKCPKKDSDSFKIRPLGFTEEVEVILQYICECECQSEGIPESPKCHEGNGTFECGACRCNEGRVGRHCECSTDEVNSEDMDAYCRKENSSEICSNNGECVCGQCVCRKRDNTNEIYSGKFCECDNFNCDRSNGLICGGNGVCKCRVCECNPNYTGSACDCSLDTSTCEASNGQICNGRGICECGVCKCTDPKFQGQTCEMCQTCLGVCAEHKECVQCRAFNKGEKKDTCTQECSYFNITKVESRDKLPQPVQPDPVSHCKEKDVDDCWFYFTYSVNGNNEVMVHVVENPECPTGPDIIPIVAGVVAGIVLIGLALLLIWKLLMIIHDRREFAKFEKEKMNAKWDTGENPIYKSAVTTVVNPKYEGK

[6] = target: B4; test: as above
αvβ3 integrin (Chemicon) = target: T3, αvβ3 integrin (Chemicon) (UniProt P06756 31-1048; P05106 27-788); test: CRKL on wells coated with integrin at 1 µg/well, anti-CRKL detection (FIG. 5)
T3 construct: Bought protein coated at 1 µg/well; also called control integrin
T3 sequence (P06756 31-1048, one chain of several): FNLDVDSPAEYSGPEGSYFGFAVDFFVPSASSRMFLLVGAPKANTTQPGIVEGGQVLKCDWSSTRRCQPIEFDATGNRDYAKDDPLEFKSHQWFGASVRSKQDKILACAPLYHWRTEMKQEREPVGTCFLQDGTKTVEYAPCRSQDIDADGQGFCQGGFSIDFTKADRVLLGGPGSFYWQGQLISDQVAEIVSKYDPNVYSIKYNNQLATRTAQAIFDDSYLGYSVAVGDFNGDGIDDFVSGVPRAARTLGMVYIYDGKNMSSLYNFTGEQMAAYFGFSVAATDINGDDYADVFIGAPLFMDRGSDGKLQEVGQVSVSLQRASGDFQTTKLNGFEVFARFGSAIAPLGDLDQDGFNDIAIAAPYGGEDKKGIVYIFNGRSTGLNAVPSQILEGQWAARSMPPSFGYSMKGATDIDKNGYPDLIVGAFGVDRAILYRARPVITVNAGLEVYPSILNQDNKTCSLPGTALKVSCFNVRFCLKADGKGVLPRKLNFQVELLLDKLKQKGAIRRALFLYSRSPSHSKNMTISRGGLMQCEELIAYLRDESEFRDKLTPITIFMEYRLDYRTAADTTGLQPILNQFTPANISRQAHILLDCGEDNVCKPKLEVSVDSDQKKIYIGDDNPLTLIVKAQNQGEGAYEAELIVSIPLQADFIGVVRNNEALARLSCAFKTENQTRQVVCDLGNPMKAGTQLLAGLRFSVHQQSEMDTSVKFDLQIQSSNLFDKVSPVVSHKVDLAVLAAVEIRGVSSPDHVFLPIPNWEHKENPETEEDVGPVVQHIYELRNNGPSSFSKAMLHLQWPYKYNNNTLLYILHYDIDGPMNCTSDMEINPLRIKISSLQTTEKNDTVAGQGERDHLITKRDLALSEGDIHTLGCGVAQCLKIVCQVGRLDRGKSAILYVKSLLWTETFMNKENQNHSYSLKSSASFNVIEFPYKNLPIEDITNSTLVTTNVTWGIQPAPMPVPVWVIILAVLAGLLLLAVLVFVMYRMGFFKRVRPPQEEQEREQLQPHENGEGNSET
Experimental: (§2) Phage binding assays on purified proteins were carried out as described (Giordano et al. 2001). Recombinant proteins were coated on microtiter wells as previous described (Cardo-Vila et al., 2003; Smith and Scott, 1993). Briefly, proteins were immobilized on microtiter wells overnight at 4° C. 50 μl of 1 μg/ml in PBS. Wells were washed twice with PBS, blocked with PBS containing 3% BSA for 2 hours at room temperature, and incubated with 10⁹ T.U. wild-type tumor-homing phage ([…]; SEQ ID NO:1), scrambled phage ([…] (SEQ ID NO:26), […] (SEQ ID NO:27), […] (SEQ ID NO:29), […] (SEQ ID NO:30)), mutant phage ([…] (SEQ ID NO:25), […] (SEQ ID NO:28)), PSI-derived cyclic phage ([…]; SEQ ID NO:23) or fd-tet phage in 50 μl of PBS containing 1.5% BSA. After 1 hour at room temperature, wells were washed ten times with PBS and phage were recovered by bacterial infection. ELISA with polyclonal anti-CKRL confirmed the presence and concentration of the CKRL recombinant proteins on the wells. To test the binding of the tumor-homing phage to SH3 containing proteins, microtiter-wells were coated at 4° C. overnight with 250 μg/ml of recombinant gst-SH3 domains (CKRL-D1, CKRL-D2, grb2-D1, grb2-D2, Lyn, src; Pronomics), rCKRL protein, and negative controls gst or BSA. […] After 3 hours, binding of CKRL to integrins was detected by using an anti-CKRL antibody followed by an HRP-conjugated anti-rabbit IgG. […]

αvβ5 integrin (Chemicon) = target: T4, αvβ5 integrin (Chemicon) (UniProt P06756 31-1048; P18084 24-799); test: as above
T4 construct: Bought protein coated at 1 µg/well; also called control integrin
T4 sequence (P06756 31-1048, chain 1 of 2): as the sequence (P06756 31-1048, one chain of several) above
T4 sequence (P18084 24-799, chain 2 of 2): as the sequence (P18084 24-799) above
Experimental: as §2

YRCTLNSPFFWEDMTHECHA (disulfide 3-18 (inferred), also called PSI domain-mimic peptide) [synthetic tumor-homing peptide YRCTLNSPFFWEDMTHECHA (SEQ ID NO:1)]: binds [1].

B1: binds [2].

B2: no binding [3]; no binding [4]; binds [5]. B2: no binding [6].

B3: no binding [5].

B4: no binding [5].

B5: no binding (αvβ3 integrin (Chemicon)); no binding (αvβ5 integrin (Chemicon)).
